{"source": "paper PMC4551932", "about": "“Different motif requirements for the localization zipcode element of β-actin mRNA binding by HuD and ZBP1”", "key": {"HuD (GST-HuD) [1]": {"molecular_target": "T1, HuD (GST-HuD) (Rattus norvegicus (rat), UniProt O09032 1-385)", "T1 sequence (O09032 whole entry)": "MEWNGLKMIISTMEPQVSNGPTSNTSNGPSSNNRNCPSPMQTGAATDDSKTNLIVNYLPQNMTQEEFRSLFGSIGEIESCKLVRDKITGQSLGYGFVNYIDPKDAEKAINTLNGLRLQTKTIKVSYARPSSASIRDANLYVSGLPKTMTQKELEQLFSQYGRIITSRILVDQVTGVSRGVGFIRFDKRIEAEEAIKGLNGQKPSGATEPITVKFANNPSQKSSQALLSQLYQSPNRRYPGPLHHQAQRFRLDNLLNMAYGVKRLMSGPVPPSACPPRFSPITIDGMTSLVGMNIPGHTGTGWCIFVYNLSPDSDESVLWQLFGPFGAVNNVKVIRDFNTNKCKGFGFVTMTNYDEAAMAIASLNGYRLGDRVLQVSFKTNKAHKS", "assay": "EMSA; REMSA: 50 mM Tris-HCl pH 7.0, 150 mM NaCl, 5 mM MgCl2, 0.2 mM DTT, 0.25 mg/ml tRNA, 0.25 mg/ml BSA, room temperature 20 min; 20 fmol RNA and 3 pmol protein in 20 ul", "conditions": "protein: recombinant, tags: GST N-terminal (pGEX-2T), label: biotin at both ends"}, "ZBP1 (His-ZBP1) [2]": {"molecular_target": "T2, ZBP1 (His-ZBP1) (Rattus norvegicus (rat), UniProt Q8CGX0 1-577)", "T2 sequence (Q8CGX0 whole entry)": "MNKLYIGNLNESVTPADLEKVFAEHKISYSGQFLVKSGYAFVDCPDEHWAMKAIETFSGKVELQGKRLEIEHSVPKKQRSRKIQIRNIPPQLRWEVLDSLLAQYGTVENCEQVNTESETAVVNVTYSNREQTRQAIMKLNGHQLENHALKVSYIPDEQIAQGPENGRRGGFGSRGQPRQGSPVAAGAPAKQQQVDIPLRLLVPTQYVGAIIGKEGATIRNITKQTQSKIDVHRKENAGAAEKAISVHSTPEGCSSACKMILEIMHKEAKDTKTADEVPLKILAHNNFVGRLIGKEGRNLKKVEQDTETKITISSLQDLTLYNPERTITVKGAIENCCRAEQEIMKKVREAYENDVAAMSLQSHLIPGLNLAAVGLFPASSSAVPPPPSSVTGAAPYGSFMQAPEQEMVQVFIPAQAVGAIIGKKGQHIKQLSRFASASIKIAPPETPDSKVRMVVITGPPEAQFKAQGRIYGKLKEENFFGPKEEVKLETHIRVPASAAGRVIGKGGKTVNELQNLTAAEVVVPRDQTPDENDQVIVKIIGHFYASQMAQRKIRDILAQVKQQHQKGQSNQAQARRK", "assay": "EMSA; REMSA: 50 mM Tris-HCl pH 7.0, 150 mM NaCl, 5 mM MgCl2, 0.2 mM DTT, 0.25 mg/ml tRNA, 0.25 mg/ml BSA, room temperature 20 min; 20 fmol RNA and 3 pmol protein in 20 ul", "conditions": "protein: recombinant, tags: 6xHis (replaces GST in pGEX), label: biotin at both ends"}, "HuD (GST-HuD) [3]": {"molecular_target": "T1, HuD (GST-HuD)", "assay": "competition EMSA; HuD displaces ZBP1 (4 pmol) from zipcode RNA; REMSA: 50 mM Tris-HCl pH 7.0, 150 mM NaCl, 5 mM MgCl2, 0.2 mM DTT, 0.25 mg/ml tRNA, 0.25 mg/ml BSA, room temperature 20 min; 20 fmol RNA and 3 pmol protein in 20 ul", "conditions": "protein: recombinant; tags: GST N-terminal (pGEX-2T); label: biotin at both ends; stem-loop, 16-nt terminal loop (predicted)"}, "ZBP1 (His-ZBP1) [4]": {"molecular_target": "T2, ZBP1 (His-ZBP1)", "assay": "EMSA; apparent Kd; REMSA: 50 mM Tris-HCl pH 7.0, 150 mM NaCl, 5 mM MgCl2, 0.2 mM DTT, 0.25 mg/ml tRNA, 0.25 mg/ml BSA, room temperature 20 min; 20 fmol RNA and 3 pmol protein in 20 ul", "conditions": "protein: recombinant, tags: 6xHis (replaces GST in pGEX), label: biotin at both ends"}, "HuD (GST-HuD) [5]": {"molecular_target": "T1, HuD (GST-HuD)", "assay": "EMSA; no difference from wild type; REMSA: 50 mM Tris-HCl pH 7.0, 150 mM NaCl, 5 mM MgCl2, 0.2 mM DTT, 0.25 mg/ml tRNA, 0.25 mg/ml BSA, room temperature 20 min; 20 fmol RNA and 3 pmol protein in 20 ul", "conditions": "protein: recombinant; tags: GST N-terminal (pGEX-2T); label: biotin at both ends; disrupted structure (predicted)"}, "[6]": {"conditions": "stem-loop, 10-nt terminal loop (predicted)"}}}
{"binder": "CGGACUGUUACUGAGCUGCGUUUUUUUCUUUGACAAAACCUAACUUGC (structured_RNA, ACACCC deleted)", "note": "[delta-ACACCC zipcode]", "values": [{"measurement": "binding result", "setting": "HuD (GST-HuD) [1]; [6]", "result": "binds"}, {"measurement": "binding result", "setting": "ZBP1 (His-ZBP1) [2]; [6]", "result": "binds"}]}
{"binder": "CGGACUGUUACUGAGCUGCGGACAAAACCUAACUUGC (structured_RNA, ACACCC and UUUCUUU deleted)", "note": "[delta(ACACCC/U-rich) zipcode]", "values": [{"measurement": "binding result", "setting": "HuD (GST-HuD) [1]; altered structure (predicted)", "result": "no binding"}, {"measurement": "binding result", "setting": "ZBP1 (His-ZBP1) [2]; altered structure (predicted)", "result": "no binding"}]}
{"binder": "WT zipcode (rat, 54 nt) (structured_RNA) RNA: CGGACUGUUACUGAGCUGCGUUUUACACCCUUUCUUUGACAAAACCUAACUUGC", "values": [{"measurement": "IC50", "setting": "HuD (GST-HuD) [3]", "result": 171, "unit": "nM"}, {"measurement": "Kd", "setting": "ZBP1 (His-ZBP1) [4]; stem-loop, 16-nt terminal loop (predicted)", "result": 28.1, "unit": "nM"}]}
{"binder": "AAMTCG zipcode (structure-disrupted mutant) (structured_RNA, structure disrupted; ACACCC and U-rich motifs intact) RNA: CGGACUGUUCCUGGGCUGCGUUUUACACCCUUUCUUUGACAAAACCUAACUUGC", "values": [{"measurement": "binding result", "setting": "HuD (GST-HuD) [5]", "result": "binds"}, {"measurement": "Kd", "setting": "ZBP1 (His-ZBP1) [4]; disrupted structure (predicted)", "result": 315, "unit": "nM"}]}
{"binder": "chicken zipcode (structured_RNA) RNA: ACCGGACUGUUACCAACACCCACACCCCUGUGAUGAAACAAAACCCAUAAAUGC", "values": [{"measurement": "binding result", "setting": "HuD (GST-HuD) [1]", "result": "no binding"}, {"measurement": "Kd", "setting": "ZBP1 (His-ZBP1) [4]", "result": 78.8, "unit": "nM"}]}
